Source: US9447157B2, “Nitration shielding peptides and methods of use thereof” (Augusta University Research Institute, Inc., priority 2013, dated 2016)
“Also recorded” adds a separate entry of the source. No end group written: not given here. *: point of attachment. X1 = 3‑carboxy‑2,2,5,5‑tetramethyl‑3‑pyrrolin‑1‑yloxy, CC1(C)C=C(C(=O)*)C(C)(C)N1[O]

Experiments:
[1] = system: human lung microvascular endothelial cells (HLMVEC); assay: Endothelial monolayer resistance (ECIS, TER) in LPS-challenged HLMVEC; assay type: cell-based; details: for Attenuation of LPS-mediated decrease in transendothelial resistance (TER) / barrier disruption: HLMVEC, LPS 1 EU/ml, MnTMPyP 25 μM, ETU 200 μM, 1400W 100 μM
Procedure: The electrical resistance of the endothelial cell monolayer was measured with the electrical cell impedance sensor (ECIS) technique. In this system, the cells are cultured on gold plated electrodes. The change in resistance across the monolayer is measured through an amplifier attached to the arrays. Each study was performed when the resistance reached a plateau. The data was normalized to the initial voltage and plotted as a normalized resistance.
To examine if protein nitration by peroxynitrite is a contributing factor in endothelial barrier disruption in response to LPS, transendothelial resistance (TER) was measured in HLMVEC in the presence or absence of the peroxynitrite scavenger, MnTmPyp. HLMVEC were challenged with LPS (1 EU/ml) in the presence or absence of the peroxynitrite scavenger, MnTMPyP (25 μM).
To evaluate the role played by NOS in the barrier dysfunction, HLMVEC were exposed to LPS in the presence or absence of ETU (a non-specific NOS inhibitor) or 1400W (to inhibit iNOS). HLMVEC were challenged with LPS (1 EU/ml) in the presence or absence of the general NOS inhibitor, ETU (200 μM) or the iNOS specific inhibitor, 1400W (100 μM). The LPS-mediated decrease in TER was attenuated in the presence of ETU, but not 1400W (FIG. 1B). The important role of eNOS was then confirmed using a siRNA approach. HLMVEC were transiently transfected with a siRNA against eNOS or a scrambled control siRNA. After 48 h, there was a significant knockdown of eNOS protein levels (50%), as determined by Western blotting. Reducing eNOS protein levels preserved HLMVEC barrier function when challenged with LPS (FIG. 1C).

Recombinant human PKG-Iα = biological target: T1, Recombinant human PKG-Iα (Homo sapiens, UniProt Q13976); assay: PKG-Iα activity assay with SIN-1 and shielding peptide; assay type: biochemical
T1 sequence (Q13976 2-671): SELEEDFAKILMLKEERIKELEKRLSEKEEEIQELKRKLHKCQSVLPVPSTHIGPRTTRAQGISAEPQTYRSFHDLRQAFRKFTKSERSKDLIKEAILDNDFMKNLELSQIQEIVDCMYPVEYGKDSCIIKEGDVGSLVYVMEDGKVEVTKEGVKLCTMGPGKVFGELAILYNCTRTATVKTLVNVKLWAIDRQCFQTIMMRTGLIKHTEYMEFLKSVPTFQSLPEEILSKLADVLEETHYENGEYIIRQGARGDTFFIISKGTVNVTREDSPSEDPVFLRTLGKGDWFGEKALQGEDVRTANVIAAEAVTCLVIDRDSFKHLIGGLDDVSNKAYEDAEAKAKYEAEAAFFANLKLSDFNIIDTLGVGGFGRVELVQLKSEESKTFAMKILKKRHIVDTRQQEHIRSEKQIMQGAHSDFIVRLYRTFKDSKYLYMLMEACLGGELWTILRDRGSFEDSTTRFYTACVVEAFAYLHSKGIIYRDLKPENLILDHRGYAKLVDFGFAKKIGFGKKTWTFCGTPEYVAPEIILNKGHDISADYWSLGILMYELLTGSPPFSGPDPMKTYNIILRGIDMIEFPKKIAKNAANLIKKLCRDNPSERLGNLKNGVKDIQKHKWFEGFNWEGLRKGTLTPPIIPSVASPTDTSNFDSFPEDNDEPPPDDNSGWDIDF
Procedure: A PKG-Iα activity assay was carried out using HLMVEC. Recombinant human PKG-Iα18 was exposed to the peroxynitrite generator, SIN-1 (200 μM, 10 min) with increasing concentrations of the shielding peptide (0-10 μg).

RhoA [2] = biological target: T2, RhoA (Mus musculus, UniProt Q9QUI0); assay: RhoA activity, nitration and protein in lungs of LPS treated mice; assay type: in vivo
T2 construct: from tissue; host or cells: mouse lung (male C57Bl/6)
T2 sequence (Q9QUI0 whole entry): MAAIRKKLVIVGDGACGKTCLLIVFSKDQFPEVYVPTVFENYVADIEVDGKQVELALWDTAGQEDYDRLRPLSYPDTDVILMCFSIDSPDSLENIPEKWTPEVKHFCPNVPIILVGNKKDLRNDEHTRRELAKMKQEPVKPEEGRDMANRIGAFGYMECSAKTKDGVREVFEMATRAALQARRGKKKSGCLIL
Procedure: The Committee on Animal Research at Georgia Regents University approved all animal protocols and procedures. Stock solutions of Escherichia coli LPS (0111:B4) were prepared in saline. […] Mice were examined 24 h after LPS treatment. At the end of the treatment lungs were flushed with 3 ml of ice-cold PBS (5 mM EDTA), excised, dipped in saline and blotted dry. A portion of the lung was quickly snap-frozen in liquid nitrogen, crushed to powder in a pre-chilled mortar and stored at -80° C. The remaining lung tissue was stored at -80° C. […] After 24 h, mice were sacrificed and lung tissue was obtained to determine RhoA activity and RhoA nitration, LPS induced RhoA activation in the mouse lung as in HLMVEC (FIG. 7A). […] Total RhoA protein levels and basal RhoA nitration were measured. […] Likewise, basal RhoA nitration levels (FIG. 7D) were unchanged.

HLMVEC = assay: Total protein nitration (3-NT/β-actin) in LPS-treated HLMVEC; assay type: cell-based, human; details: peptide 100 ng/ml 30 min, then LPS 1 EU/ml
Description: Cell extracts were separated on 4-20% gels and electrophoretically transferred to PVDF membrane (Bio-Rad), then blocked with 5% nonfat dry milk in Tris-buffered saline. The membranes were probed with antibodies to RhoA (Cell Signaling), eNOS (BD), iNOS (Cell Signaling), or 3-Nitrotyrosine (Calbiochem). Reactive bands were visualized using chemi-luminescence (Pierce) on a Kodak 440CF image station. Band intensity was quantified using Kodak 1D image processing software. Protein loading was normalized by re-probing with mouse anti-β-actin.

RhoA [3] = biological target: T3, RhoA (Homo sapiens, UniProt P61586); assay: Biotin pull down assay of peptide binding to RhoA; set-up: polyHis (6His); made in house; host or cells: Escherichia coli BL21; details: peptide 100 ng/ml, recombinant human RhoA 0.1 mg
T3 sequence (P61586 whole entry): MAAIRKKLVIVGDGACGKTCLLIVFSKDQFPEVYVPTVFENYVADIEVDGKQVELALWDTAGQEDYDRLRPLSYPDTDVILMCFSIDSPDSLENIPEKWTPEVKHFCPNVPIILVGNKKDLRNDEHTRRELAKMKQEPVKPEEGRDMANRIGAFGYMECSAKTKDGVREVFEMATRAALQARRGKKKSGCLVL
Procedure: To evaluate the ability of each peptide to bind to RhoA each peptide (100 ng/ml) was mixed with recombinant human RhoA (0.1 mg) for the biotin pull down assay.

RhoA [4] = biological target: T3, RhoA; assay: RhoA activity, Rhotekin RBD pull-down, in LPS-treated HLMVEC; assay type: cell-based; set-up: endogenous in cells; host or cells: HLMVEC (human lung microvascular endothelial cells); details: MnTMPyP 25 μM 30 min pre-treatment, LPS 1 EU/ml 4 h
Procedure: RhoA activity levels were measured using the Rhotekin Rho Binding Domain (RBD) pull-down assay. Briefly, 2×10^6 cells were seeded in 10 cm dishes and incubated overnight in DMEM with 10% FBS and 5% antibiotics. The cells were then pretreated with the peroxynitrite scavenger, MynTMPyp (25 μM), for 30 min. The cells were treated with LPS (1 EU/ml) for 4 h. The level of active RhoA pulled down by the assay was measured by Western blot analysis (see above).

RhoA [5] = biological target: T3, RhoA; assay: RhoA nitration, immunoprecipitation and 3-NT blot, in LPS-treated HLMVEC; assay type: cell-based; set-up: endogenous in cells; host or cells: HLMVEC (human lung microvascular endothelial cells); details: MnTMPyP, LPS 1 EU/ml 4 h
Description: HLMVEC were lysed and centrifuged at 6,000×g and the supernatant collected as previously described (Sud, N., et al., Am. J. Physiol. Lung Cell Mol. Physiol. 293, L1444-1453 (2007); Sharma, S., et al., Am. J. Physiol. Lung Cell Mol. Physiol. 294, L46-56 (2008)). Cell extracts were separated on 4-20% gels and electrophoretically transferred to PVDF membrane (Bio-Rad), then blocked with 5% nonfat dry milk in Tris-buffered saline. The membranes were probed with antibodies to RhoA (Cell Signaling), eNOS (BD), iNOS (Cell Signaling), or 3-Nitrotyrosine (Calbiochem). Reactive bands were visualized using chemi-luminescence (Pierce) on a Kodak 440CF image station. Band intensity was quantified using Kodak 1D image processing software. Protein loading was normalized by re-probing with mouse anti-β-actin.
HLMVEC were homogenized in IP buffer (25 mM Hepes, pH 7.5, 150 mM NaCl, 1% NP-40, 10 mM MgCl2, 1 mM EDTA, 2% glycerol supplemented with protease inhibitors). To precipitate the bound protein, 10 μl of a protein A/G agarose suspension (EMD/Calbiochem) was added for 2 h at 4° C. The samples were then centrifuged at 14,000 rpm for 5 min, the supernatant removed, and the beads washed 3× with IP buffer. Twenty μl of 2× Laemmli buffer was added, the samples were boiled for 5 min, and analyzed as described above. Immunoprecipitation efficiency was normalized by re-probing with RhoA.

RhoA [6] = biological target: T3, RhoA; assay: Stopped-flow kinetic analysis of mant-GDP/mant-GTP binding to RhoA; set-up: polyHis (6His); made in house; host or cells: Escherichia coli BL21; Binding constant of GDP to RhoA / GTP binding constant of RhoA: unit not given here; details: stop-flow, RhoA with or without peroxynitrite (100 μM, 30 min); for Binding constant of GDP to RhoA: mant-GDP; for GTP binding constant of RhoA: mant-GTP
Procedure: RhoA was treated with authentic peroxynitrite (500 μM, 30 min) to induce tyrosine nitration in buffered solution. For kinetic analyses, 2 μM of either mart-GTP or -GDP was mixed with RhoA (0.1 μM) in a stopped-flow instrument (SX-20, […]). Increases in fluorescent intensity mant-nucleotide binding to RhoA were then measured using excitation 350 nm and cutoff filter 395 nm for 0.2-1 second. Acquired kinetic curves for 3-5 experiments were averaged and fitted using the Pro-kineticist software to determine observed binding constants.
To test the validity of the MD data kinetic studies were performed. His-tagged human RhoA construct was expressed in the Escherichia con BL21 strain. First, the bacterial lysate was purified by 6His-tag affinity on a Ni-NTA column. Second, the proteins in the elution fraction from the affinity purification were separated by size-exclusion chromatography (FIG. 11). The fraction containing RhoA was identified both by Coomassie blue staining and Western blot analysis. The recombinant purified RhoA was subjected to rapid flow kinetics to evaluate GDP and GTP binding using fluorescently labeled guanine nucleotides. Peroxynitrite decreases GDP binding to purified RhoA. Human recombinant RhoA was exposed to authentic peroxynitrite (100 μM, 30 min) on ice. The kinetics of binding fluorescently labeled GDP (FIG. 12A) or GTP (FIG. 12B) to RhoA was then performed using stop-flow analysis. Three measurements were averaged and fitted with bimolecular reaction equation. […] However, nitration of RhoA had no effect on the GTP binding constant ([…]).

## CCSC(=N)N [ETU]
[1]
  Attenuation of LPS-mediated decrease in transendothelial resistance (TER) / barrier disruption: attenuated

## GALRQKNVK(X)-amide (SEQ ID NO:29), where X is 3-carboxy-2,2,5,5-tetramethyl-3-pyrrolin-1-yloxy (nitroxide) (GALRQKNVK(X1)-NH2; N-terminus assumed; SMILES CC(C)C[C@H](NC(=O)[C@H](C)NC(=O)CN)C(=O)N[C@@H](CCCNC(=N)N)C(=O)N[C@@H](CCC(N)=O)C(=O)N[C@@H](CCCCN)C(=O)N[C@@H](CC(N)=O)C(=O)N[C@H](C(=O)N[C@@H](CCCCNC(=O)C1=CC(C)(C)N([O])C1(C)C)C(N)=O)C(C)C; listed as Homo sapiens) [shielding peptide]
[1]; in vitro, LPS challenge
  Barrier function when challenged with LPS: preserved
Recombinant human PKG-Iα; SIN-1 200 μM, 10 min, shielding peptide 0-10 μg
  PKG-Iα activity against peroxynitrite: preserves; also recorded: dose-dependently preserved
Recombinant human PKG-Iα; in vitro
  Physiologic PKG-Iα activity: did not alter

## HRKKRRQRRRQFPVFVPTVF (SEQ ID NO:35) (listed as Homo sapiens) [NipR1F, control peptide in which Y34 was substituted with a phenylalanine residue]
RhoA [2]; peptide alone, no LPS
  Basal RhoA nitration levels in mouse lung: unchanged
RhoA [2]; peptide i.p. 0.1 mg/kg, with or without LPS
  Total RhoA protein levels in mouse lung: Neither peptide nor LPS treatment altered
HLMVEC
  Increase in total protein nitration induced by LPS: unaffected
RhoA [3]
  Interaction between RhoA and biotinylated peptide: strong interaction

## MnTMPyP
[1]
  Attenuation of LPS-mediated decrease in transendothelial resistance (TER) / barrier disruption: significantly attenuated
RhoA [4]
  Attenuation of LPS-induced increase in RhoA activity: attenuated
RhoA [5]
  Attenuation of LPS-induced RhoA nitration: attenuated

## RhoA+ONOO: human recombinant RhoA exposed to authentic peroxynitrite (nitrated)
RhoA [6]
  Binding constant of GDP to RhoA: 4.03
  GTP binding constant of RhoA: 36.2

## RhoA: His-tagged human recombinant purified RhoA
RhoA [6]
  Binding constant of GDP to RhoA: 19.8
  GTP binding constant of RhoA: 38.7
